The source of these data is patent US20260167721A1 (ABLEXIS, published 2026).

Where a chain is given by its changes, count along the chain named. In names and notes the source's numbering stands.

The target in assay [1] is T1, recombinant human CD3 epsilon/delta heterodimer (human, UniProt P07766 23-126; P04234 22-105).
T1 construct: Recombinant protein in solution (200-50 nM) in the Octet assay; also called hCD3 E/D; human CD3E/D
Description: Octet BLI, mAb on FAB2G sensor, hCD3 E/D 200-50 nM; R^2 0.99.

The target in assay [2] is T2, recombinant human CD3 epsilon/gamma heterodimer (human, UniProt P07766 23-126; P09693 23-116).
T2 construct: Recombinant protein in solution (200-50 nM) in the Octet assay; also called hCD3 E/G
T2 sequence (P07766 23-126, chain 1 of 2): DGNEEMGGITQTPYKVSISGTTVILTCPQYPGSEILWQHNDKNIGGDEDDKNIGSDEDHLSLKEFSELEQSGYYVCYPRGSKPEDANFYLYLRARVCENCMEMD
T2 sequence (P09693 23-116, chain 2 of 2): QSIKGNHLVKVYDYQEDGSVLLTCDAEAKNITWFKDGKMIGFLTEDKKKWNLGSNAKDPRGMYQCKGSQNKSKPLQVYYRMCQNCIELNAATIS
The assay is described as follows: Octet BLI, mAb on FAB2G sensor, hCD3 E/G 200-50 nM; R^2 0.84. (In general: BLI is a label-free optical method that tracks binding on a fibre tip over time.)
Description: (§1) Samples were evaluated by flow cytometry analysis against Jurkat and human Pan-T cells (FIG. 1B) as well as by Octet against recombinant human CD3 proteins to evaluate apparent affinities and binding off-rates (Table 6, infra).

The target in assay [3] is T1, recombinant human CD3 epsilon/delta …. Description: Octet BLI, mAb on FAB2G sensor, hCD3 E/D 200-50 nM; R^2 0.97.
Description: as §1
Assay [4] shares this target. The assay is described as follows: Octet BLI, mAb on FAB2G sensor, hCD3 E/D 200-50 nM; R^2 1.00.
In assay [5] the target is T3, CD3 on Jurkat wild-type cells (UniProt P07766 23-207; P04234 22-171; P09693 23-182).
T3 construct: whole, on cells; also called Jurkat WT
T3 sequence (P07766 23-207, chain 1 of 3): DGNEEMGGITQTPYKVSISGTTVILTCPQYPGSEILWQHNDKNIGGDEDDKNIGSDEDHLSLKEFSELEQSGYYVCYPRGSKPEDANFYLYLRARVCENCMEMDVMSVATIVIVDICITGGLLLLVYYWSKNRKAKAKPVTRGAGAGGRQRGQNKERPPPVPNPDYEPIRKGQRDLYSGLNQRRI
T3 sequence (P04234 22-171, chain 2 of 3): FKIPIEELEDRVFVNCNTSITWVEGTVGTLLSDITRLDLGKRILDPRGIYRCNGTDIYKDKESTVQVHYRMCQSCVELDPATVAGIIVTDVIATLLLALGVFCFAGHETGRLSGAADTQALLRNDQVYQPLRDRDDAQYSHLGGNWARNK
T3 sequence (P09693 23-182, chain 3 of 3): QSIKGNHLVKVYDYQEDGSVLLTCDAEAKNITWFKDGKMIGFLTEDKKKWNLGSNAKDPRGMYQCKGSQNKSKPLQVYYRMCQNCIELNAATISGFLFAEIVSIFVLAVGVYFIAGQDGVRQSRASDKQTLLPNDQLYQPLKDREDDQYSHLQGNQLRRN
The assay is described as follows: flow cytometry on Jurkat WT cells, antibody at 1 ug/ml. (In general: A flow cytometer gives signals particle by particle.)

Assay [6] concerns the target T3, CD3 on Jurkat wild-type cells. The assay is described as follows: flow cytometry on Jurkat WT cells, antibody at 10 ug/ml.
The target of assay [7] is T4, CD33 on KILR-HL60 cells (UniProt P20138 18-364, limits assumed).
T4 construct: whole, on cells; Target of the gemtuzumab arm; also called CD33 expressing cells
T4 sequence (P20138 18-364 limits assumed): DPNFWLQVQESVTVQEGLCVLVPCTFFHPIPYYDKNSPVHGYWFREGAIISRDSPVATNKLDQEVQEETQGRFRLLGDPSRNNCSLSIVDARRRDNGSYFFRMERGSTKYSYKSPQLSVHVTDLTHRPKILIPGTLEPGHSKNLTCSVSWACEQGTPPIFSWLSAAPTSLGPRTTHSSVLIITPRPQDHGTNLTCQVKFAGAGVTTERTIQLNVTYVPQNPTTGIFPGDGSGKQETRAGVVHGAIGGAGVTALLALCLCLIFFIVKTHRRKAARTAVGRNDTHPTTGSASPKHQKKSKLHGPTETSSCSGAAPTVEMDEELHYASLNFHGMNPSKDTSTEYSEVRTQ
The assay is described as follows: flow cytometry on KILR-HL60 (CD33 expressing) cells, antibody at 1 ug/ml.

The target in assay [8] is T4, CD33 on KILR-HL60 cells. Description: flow cytometry on KILR-HL60 (CD33 expressing) cells, antibody at 10 ug/ml.

T1 sequence (P07766 23-126, stated change not applied, chain 1 of 2): as the sequence (P07766 23-126, chain 1 of 2) above
T1 sequence (P04234 22-105, stated change not applied, chain 2 of 2): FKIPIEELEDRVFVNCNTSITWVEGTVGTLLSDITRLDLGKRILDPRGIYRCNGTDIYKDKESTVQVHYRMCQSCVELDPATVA

B1: ABL-CD3-9 (antibody, V domains shown)
VH: EVQLVDSGGGLVKPGGSLRLSCAASGFTFSSYSMNWVRQAPGKGLEWVSSVNSRGSYIYYADSVKGRFTISRDNAKNSLYLQMNSLRADDTAVYYCARDRRELLLDYWGQGTLVTVSS
VL: SYELTQPPSVSVSPGQTARITCSGDALPKKYAYWYQQKSGQAPVLVIYEDSKRPSGIPERFSGSSSGTMATLTISGAQVEDEADYYCYSTDSSGNHCWVFGGGTKLTVL
notes: Chimeric hybridoma mAb: human V, CH1, upper hinge; mouse middle hinge, CH2, CH3
In general, Kd refers to the constant that tells how readily two partners part at equilibrium. For orientation: koff means the rate constant with which the complex falls apart. The term kon denotes the rate constant with which the complex forms. In the case of B1, in assay [1], the Kd was 0.0708 µM, the Response turned out to be 0.34, the koff turned out to be 0.0393 s⁻¹ and the association rate constant (kon) turned out to be 555000 M⁻¹ s⁻¹. Besides, in assay [2], the Kd was found to be 0.11 µM, the Response worked out at 0.1, the off-rate (koff) amounted to 0.114 s⁻¹ and the on-rate constant (kon) turned out to be 1.04e+06 M⁻¹ s⁻¹.

B2: ABL-CD3-35 (antibody, V domains shown)
VH: B1 VH with D6E, N77D
VL: B1 VL
notes: as for B1
Take B2: in assay [3], the Kd was 0.0547 µM, the Response came to 0.36, the off-rate (koff) stood at 0.0271 s⁻¹ and the on-rate (kon) turned out to be 495000 M⁻¹ s⁻¹. In assay [2], the Kd worked out at 0.0142 µM, the Response worked out at 0.12, the koff is 0.0144 s⁻¹ and the kon amounted to 1.02e+06 M⁻¹ s⁻¹.

B3: ABL-CD3-45 (antibody, V domains shown)
VH: EVQLVESGGGLVQPGGSLRLSCAASGFTFSSYWMSWVRQAPGKGLEWVANIKEDGSEKYYVDSVKGRFTISRDNAKNSLYLQMNSLRAEDTAVYYCARERRTGYLDYWGQGTLVTVSS
VL: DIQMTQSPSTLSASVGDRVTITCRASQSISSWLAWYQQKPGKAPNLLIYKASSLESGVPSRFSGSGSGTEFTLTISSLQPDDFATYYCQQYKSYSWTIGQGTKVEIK
notes: as for B1
Regarding B3, in assay [4], the Kd turned out to be 0.0137 µM, the Response was determined as 0.2, the koff came to 0.000475 s⁻¹ and the kon turned out to be 34600 M⁻¹ s⁻¹. In addition, in assay [2], the equilibrium dissociation constant (Kd) is 0.0158 µM, the Response was determined as 0.03, the koff stood at 0.00375 s⁻¹ and the association rate constant (kon) amounted to 237000 M⁻¹ s⁻¹.

B4: Control Humanized anti-CD3 (low affinity) scFv-Fc knob/TM x gemtuzumab (bispecific antibody)
scFv: EVQLVESGGGLVQPGGSLRLSCAASGFTFSTYAMNWVRQAPGKGLEWVGRIRSKYNNYATYYADSVKGRFTISRDDSKNTLYLQMNSLRAEDTAVYYCVRHGNFGDSYVSWFDYWGQGTLVTVSSGKPGSGKPGSGKPGSGKPGSQAVVTQEPSLTVSPGGTVTLTCGSSTGAVTTSNYANWVQQKPGKSPRGLIGGTNKRAPGVPARFSGSLLGGKAALTISGAQPEDEADYYCALWYSNHWVFGGGTKLTVLGGGGSDKTHTCPPCPAPEFEGGPSVFLFPPKPKDTLMISRTPEVTCVVVDVSHEDPEVKFNWYVDGVEVHNAKTKPREEQYNSTYRVVSVLTVLHQDWLNGKEYKCKVSNKALPASIEKTISKAKGQPREPQVYTLPPCREEMTKNQVSLWCLVKGFYPSDIAVEWESNGQPENNYKTTPPVLDSDGSFFLYSKLTVDKSRWQQGNVFSCSVMHEALHNHYTQKSLSLSPGK
heavy: EVQLVQSGAEVKKPGSSVKVSCKASGYTITDSNIHWVRQAPGQSLEWIGYIYPYNGGTDYNQKFKNRATLTVDNPTNTAYMELSSLRSEDTAFYYCVNGNPWLAYWGQGTLVTVSSASTKGPSVFPLAPSSKSTSGGTAALGCLVKDYFPEPVTVSWNSGALTSGVHTFPAVLQSSGLYSLSSVVTVPSSSLGTQTYICNVNHKPSNTKVDKRVEPKSCDKTHTCPPCPAPEFEGGPSVFLFPPKPKDTLMISRTPEVTCVVVDVSHEDPEVKFNWYVDGVEVHNAKTKPREEQYNSTYRVVSVLTVLHQDWLNGKEYKCKVSNKALPASIEKTISKAKGQPREPQVCTLPPSREEMTKNQVSLSCAVKGFYPSDIAVEWESNGQPENNYKTTPPVLDSDGSFFLVSKLTVDKSRWQQGNVFSCSVMHEALHNRFTQKSLSLSPGK
light: DIQLTQSPSTLSASVGDRVTITCRASESLDNYGIRFLTWFQQKPGKAPKLLMYAASNQGSGVPSRFSGSGSGTEFTLTISSLQPDDFATYYCQQTKEVPWSFGQGTKVEVKRTVAAPSVFIFPPSDEQLKSGTASVVCLLNNFYPREAKVQWKVDNALQSGNSQESVTEQDSKDSTYSLSSTLTLSKADYEKHKVYACEVTHQGLSSPVTKSFNRGEC
In the case of B4, the flow cytometry signal in assay [5] came to 2620; in assay [6], 3230; with CD33 on KILR-HL60 cells [7] it was 535000; with CD33 on KILR-HL60 cells [8] it was 623000.

B5: Gemtuzumab (antibody, V domains shown)
VH: EVQLVQSGAEVKKPGSSVKVSCKASGYTITDSNIHWVRQAPGQSLEWIGYIYPYNGGTDYNQKFKNRATLTVDNPTNTAYMELSSLRSEDTAFYYCVNGNPWLAYWGQGTLVTVSS
VL: DIQLTQSPSTLSASVGDRVTITCRASESLDNYGIRFLTWFQQKPGKAPKLLMYAASNQGSGVPSRFSGSGSGTEFTLTISSLQPDDFATYYCQQTKEVPWSFGQGTKVEVKR
notes: the heavy chain entry carries the hole, H435R/Y436F and L234F/L235E/P331S changes, which the control may not have; also called anti-CD33 control antibody
On to B5, for which the flow cytometry signal in assay [5] amounted to 2570; in assay [6] it was 2570; in the assay with CD33 on KILR-HL60 cells [7], 321000; with CD33 on KILR-HL60 cells [8] it was 351000.
